Substrate: C#CCCCCC(=O)O
Experiment: purified protein
Type: biochemical, Synechocystis salina
Settings: co-substrate bartoloside G (5) 100 μM, 20 mM HEPES, 50 mM NaCl, 10 mM MgCl2, 5 mM CaCl2, pH 8.0, 37 °C, standard error, n = 3

B1: NStrep-BrtB (Synechocystis salina LEGE 06099) (protein)
chain: MANPFDVALTNLNSLYSGIPDVPVLQTYNSLNPYDISLTNLNNLSNFVIEPAVLPTAAGTYGPQISEIAFALGGGIITGALADLLSTELGIEIENEALITKFLSFWTPGSDYAFGQDYVEFIQGREGFDTIIGYDPGFNSALAPVQIDFVLGGPRQDFNFFAPLDEPARYVLGDWRTPYYVDNDIQSEGLNEFMYVSLFTLNPDEFSPDNAENHRIQLYGSLDNYYFVPTTVVIDGSALDPSLPSIPVPGTEIYYKTGQVFADLIAIVPFQDPNDPNLISAWIDFEGYLPPEQADLSGQTANPLLSGSPLLQLGYEGIDMGTATALAPDGDIYVAGSTSSLLGPFPRGGSDNFIARYNDDGSLEWIVQFGSTEFDIITDIVSDSAGNVYATGWTRGNVETGFGLAPGVQDNWVAKFDANGSQLWVEQFTIDGYLDRSMGIALDEVNGRIHLTGHSNTDGSVADTNDPAIVPNGNVVTWIAGFDANTGAEDYRNVFEVAQTSNSRGRIDEGFGIDVDDAGNVFSTGWAGENAYDVYLVKSDTDGAVLWTKSFGTGSNATQSYAWDVASDGTNAYILGWTQGELNTFRDQIPPTDEFAGNATAPLTPQNAYQGGTFDAFVAAYDTDGTELWTWHVGGTGDDGTFFGKIVAAGDFVYATGYTDGFIGTLGGSNAGDYDAWIGKFDKLTGQTAWIQQIGSTKLDYATGISVDGDDIFVTGFTEGSLGGLNGGASDAWVAKLNQDGALEAFNVSAPIAPPAPFAPPAPLTPPAPPAPDLSSLQSLGSTPQPTYPALGDSYGTNPFGTQPTQPTYDLSSMYQNAYYGGFGGYSGYGY
notes: N-terminal Strep-Tag, pET-51b, E. coli BL21 (DE3) Rosetta; cloning primers imply N-terminus MANPF and C-terminus GYGY; two protein preparations pooled 1:1
Km: 234 ± 41 µM

Source: PMC7081238, “BrtB is an O-alkylating enzyme that generates fatty acid-bartoloside esters” (Nature Communications, 2020)
